PMC11563578 (eLife, 2024)

Molecular target: T1, RNA polymerase II subunit Rpb1 (S. cerevisiae, UniProt P04050 1-1733)
T1 construct: Rpb1, largest subunit of yeast RNA polymerase II; source: endogenous, S. cerevisiae; also the Δrpb4 RPB2-HFH strain
Assay: cross-linking; affinity-purified holo-pol II and ΔRpb4 pol II cross-linked with C1q2/C2q2 Q2linkers in a crosslinker swapping experiment (experiments I and II), pooled, MS; crosslinks identified with pLink2 and Nexus against the 12 pol II subunits
Conditions: both partners purified

T1 sequence (P04050 whole entry): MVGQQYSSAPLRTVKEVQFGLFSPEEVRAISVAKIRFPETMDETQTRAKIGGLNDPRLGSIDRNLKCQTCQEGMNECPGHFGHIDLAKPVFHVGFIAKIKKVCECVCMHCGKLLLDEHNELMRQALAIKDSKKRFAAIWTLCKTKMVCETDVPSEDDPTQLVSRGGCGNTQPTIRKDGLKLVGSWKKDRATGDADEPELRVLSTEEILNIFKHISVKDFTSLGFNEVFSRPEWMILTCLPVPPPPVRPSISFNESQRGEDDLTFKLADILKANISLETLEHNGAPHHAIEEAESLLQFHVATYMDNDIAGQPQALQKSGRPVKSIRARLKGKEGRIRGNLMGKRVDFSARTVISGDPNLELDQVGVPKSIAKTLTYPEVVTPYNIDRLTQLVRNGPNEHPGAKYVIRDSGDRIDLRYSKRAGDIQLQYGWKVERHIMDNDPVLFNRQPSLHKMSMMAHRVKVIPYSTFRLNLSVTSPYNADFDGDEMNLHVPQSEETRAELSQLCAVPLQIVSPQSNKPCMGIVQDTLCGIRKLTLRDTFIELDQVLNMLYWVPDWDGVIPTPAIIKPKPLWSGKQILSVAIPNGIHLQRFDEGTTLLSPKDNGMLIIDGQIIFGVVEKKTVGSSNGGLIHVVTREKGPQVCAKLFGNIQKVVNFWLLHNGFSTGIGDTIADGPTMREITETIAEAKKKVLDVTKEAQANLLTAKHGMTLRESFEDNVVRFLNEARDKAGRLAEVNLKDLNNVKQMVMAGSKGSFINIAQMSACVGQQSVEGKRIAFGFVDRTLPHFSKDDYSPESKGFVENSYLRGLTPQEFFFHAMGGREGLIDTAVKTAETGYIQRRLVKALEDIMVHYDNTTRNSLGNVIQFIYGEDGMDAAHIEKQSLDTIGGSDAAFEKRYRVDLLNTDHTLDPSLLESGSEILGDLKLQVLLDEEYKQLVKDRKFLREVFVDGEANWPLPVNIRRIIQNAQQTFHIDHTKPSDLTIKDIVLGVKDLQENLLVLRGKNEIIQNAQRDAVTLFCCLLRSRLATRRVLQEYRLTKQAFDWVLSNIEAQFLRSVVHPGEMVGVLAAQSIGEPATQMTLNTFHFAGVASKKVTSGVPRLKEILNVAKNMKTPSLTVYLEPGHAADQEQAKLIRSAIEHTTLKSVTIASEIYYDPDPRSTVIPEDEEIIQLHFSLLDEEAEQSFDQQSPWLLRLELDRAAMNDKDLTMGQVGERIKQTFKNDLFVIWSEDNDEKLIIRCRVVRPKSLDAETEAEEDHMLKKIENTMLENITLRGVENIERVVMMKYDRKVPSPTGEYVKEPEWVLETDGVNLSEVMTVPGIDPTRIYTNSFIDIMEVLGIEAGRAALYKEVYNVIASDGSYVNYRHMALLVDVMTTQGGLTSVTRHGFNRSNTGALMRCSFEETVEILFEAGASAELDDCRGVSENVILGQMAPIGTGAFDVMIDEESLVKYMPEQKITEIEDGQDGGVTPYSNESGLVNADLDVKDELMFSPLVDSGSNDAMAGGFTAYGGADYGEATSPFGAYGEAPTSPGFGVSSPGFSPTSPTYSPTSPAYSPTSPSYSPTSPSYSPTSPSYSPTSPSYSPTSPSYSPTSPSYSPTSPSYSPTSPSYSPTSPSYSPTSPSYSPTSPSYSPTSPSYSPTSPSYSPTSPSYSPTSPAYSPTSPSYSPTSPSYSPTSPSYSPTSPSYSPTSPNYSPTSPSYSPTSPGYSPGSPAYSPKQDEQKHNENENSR

B1: RNA polymerase II subunit Rpb7 (natural protein, S. cerevisiae, UniProt P34087 1-171, looked up)
chain: MFFIKDLSLNITLHPSFFGPRMKQYLKTKLLEEVEGSCTGKFGYILCVLDYDNIDIQRGRILPTDGSAEFNVKYRAVVFKPFKGEVVDGTVVSCSQHGFEVQVGPMKVFVTKHLMPQDLTFNAGSNPPSYQSSEDVITIKSRIRVKIEGCISQVSSIHAIGSIKEDYLGAI
notes: Rpb7, subunit of yeast RNA polymerase II; also called Rbp7; source: endogenous, S. cerevisiae; sub-stoichiometric from the Δrpb4 RPB2-HFH strain
binding result: binds

B2: RNA polymerase II subunit Rpb9 (natural protein, S. cerevisiae, UniProt P27999 1-122, looked up)
chain: MTTFRFCRDCNNMLYPREDKENNRLLFECRTCSYVEEAGSPLVYRHELITNIGETAGVVQDIGSDPTLPRSDRECPKCHSRENVFFQSQQRRKDTSMVLFFVCLSCSHIFTSDQKNKRTQFS
notes: Rpb9, subunit of yeast RNA polymerase II; source: endogenous, S. cerevisiae; also the Δrpb4 RPB2-HFH strain
binding result: binds
